# Reference: US20210292761, “COMPOSITIONS COMPRISING CIRCULAR POLYRIBONUCLEOTIDES AND USES THEREOF” (FLAGSHIP PIONEERING INNOVATIONS VI, LLC, published 2021)
# B1: scrambled control RNA (ssRNA)
# RNA: AAAAAAAUUCUCCGAACGUGUCACGUUUCAAGAGAACGUGACACGUUCGGAGAAAAAAAA
# Assays:
# [1] = test system: NF-kB (endogenous, A549 cells) (Homo sapiens); experiment: cell_activity; settings: A549, day 2 (89% day 1); 1 pmol transfected; indirect evidence of binding
# [2] = biological target: T1, NF-kB p50 subunit (NFKB1) (UniProt P19838 P19838:1-433); experiment: EMSA; 1 pmol RNA, 0-10 pmol p50; 20 mM Tris-HCl pH 8.0, 50 mM NaCl, 1 mM MgCl2, RT 20 min; affinity similar to linear; settings: tags: Cayman Chemical 10009818; chain copies: 2; circular (ligated with RNA ligase 1), aptamer hairpin with poly(A) flanks; printed with T, is RNA
# Protocol: (§1) Electrophoretic mobility shift assay (EMSA) was performed to assess circular RNA binding affinity to NF-kB. One pmole of linear or circular RNA was incubated with recombinant NF-kB p50 subunit (Caymen Chemical, 10009818) at varying concentrations over the RNA concentration (i.e., 0, 0.1, 1, 10 pmoles of protein) for 20 minutes at room temperature in a buffered reaction (20 mM Tris-HCl, pH 8.0, 50 mM NaCl, 1 mM MgCl2). Samples were run a 6% TBE Urea gel for 25 minutes at 200V. Gels were stained with SybrGold (Thermo Scientific, S11494) and imaged with a blue E-gel imaging system (Thermo Scientific, 4466612).
# [3] = biological target: T1, NF-kB p50 subunit (NFKB1); experiment: EMSA; 1 pmol RNA, 0-10 pmol p50; 20 mM Tris-HCl pH 8.0, 50 mM NaCl, 1 mM MgCl2, RT 20 min; affinity similar to circular; settings: tags: Cayman Chemical 10009818; chain copies: 2; linear; printed with T, is RNA
# Protocol: as §1
# [4] = biological target: T1, NF-kB p50 subunit (NFKB1); experiment: EMSA; scrambled control, same buffer; settings: tags: Cayman Chemical 10009818; chain copies: 2; hairpin; printed with T, is RNA
# Protocol: as §1
# T1 sequence (P19838 1-433, one chain of several): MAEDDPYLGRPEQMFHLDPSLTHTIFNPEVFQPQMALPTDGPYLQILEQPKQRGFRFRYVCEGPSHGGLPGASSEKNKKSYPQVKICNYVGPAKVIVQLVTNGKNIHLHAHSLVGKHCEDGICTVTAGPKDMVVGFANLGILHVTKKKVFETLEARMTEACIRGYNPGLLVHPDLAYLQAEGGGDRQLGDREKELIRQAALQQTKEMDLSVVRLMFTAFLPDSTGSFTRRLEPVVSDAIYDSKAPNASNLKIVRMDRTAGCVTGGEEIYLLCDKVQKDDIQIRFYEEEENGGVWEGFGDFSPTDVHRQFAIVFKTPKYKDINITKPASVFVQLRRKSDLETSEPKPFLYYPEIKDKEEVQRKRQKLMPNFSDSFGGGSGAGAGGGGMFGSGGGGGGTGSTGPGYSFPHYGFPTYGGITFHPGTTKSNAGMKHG
molecule,measurement,setting,value
AAAAAAAAAAGAUCUUGAAACUGUUUUAAGGUUGGCCGAUCUUAAAAAA [circular NF-kB aptamer RNA],activity,[1],86 % viability
AAAAAAAAAAGAUCUUGAAACUGUUUUAAGGUUGGCCGAUCUUAAAAAA (ssRNA) [circular NF-kB aptamer RNA],binding result,[2],binds
"AAAAAAAAAAGAUCUUGAAACUGUUUUAAGGUUGGCCGAUCUUAAAAAA (ssRNA, 5' monophosphate) [linear NF-kB aptamer RNA]",binding result,[3],binds
B1,binding result,[4],no binding
